The values that follow come from patent publication US20250011363A1, “OPTIMIZED SHORTENED PEPTIDE THAT BINDS TO ACETYLCHOLINE RECEPTOR, AND USE THEREOF” (SKINMED CO., LTD., priority 2021, published 2025).

The assay addresses acetylcholine receptor. Description: SPR, AchR immobilised, peptide 10 uM.

B1: 6mer-1-1127 (peptide)
peptide: RKMMMK
Molecule B1 came in with a Binding affinity (RU) of 34 RU.

B2: 6mer-1-1112 (peptide)
peptide: KKDPWK
For B2, the Binding affinity (RU) was 27 RU.

B3: 6mer-1-1104 (peptide)
peptide: KRNSAR
Regarding B3, the Binding affinity (RU) stood at 28 RU.

B4: 6mer-1-1090 (peptide)
peptide: KKTMWR
B4 returned a Binding affinity (RU) of 27 RU.

B5: 6mer-1-1105 (peptide)
peptide: RRCTAR
In turn, B5 gave a Binding affinity (RU) of 40 RU.

B6: 6mer-1-1089 (peptide)
peptide: RKFTKK
Turning to B6, the Binding affinity (RU) was 31 RU.

B7: 6mer-1-1119 (peptide)
peptide: KRIWVR
With B7, the Binding affinity (RU) turned out to be 31 RU.

B8: 6mer-1-1091 (peptide)
peptide: KKDDGK
B8 had a Binding affinity (RU) of 32 RU.

B9: 6mer-1-1123 (peptide)
peptide: RRDNVK
Consider B9, for which the Binding affinity (RU) turned out to be 41 RU.

B10: 6mer-1-1088 (peptide)
peptide: RRETHK
With B10, the Binding affinity (RU) was 38 RU.

B11: 6mer-1-1084 (peptide)
peptide: KKCCPK
With B11, the Binding affinity (RU) is 25 RU.

B12: 6mer-1-1093 (peptide)
peptide: RRKSDR
B12: the Binding affinity (RU) was 37 RU.

B13: 6mer-1-1115 (peptide)
peptide: RKCAFR
The molecule B13 showed a Binding affinity (RU) of 43 RU.

B14: 6mer-1-1101 (peptide)
peptide: RRECDK
In the case of B14, the Binding affinity (RU) is 37 RU.

B15: 6mer-1-1092 (peptide)
peptide: RKYHDK
B15 came in with a Binding affinity (RU) of 43 RU.

B16: 6mer-1-1099 (peptide)
peptide: RRKTDR
B16 had a Binding affinity (RU) of 24 RU.

B17: 6mer-1-1082 (peptide)
peptide: KKTCDR
The molecule B17 had a Binding affinity (RU) of 37 RU.

B18: 6mer-1-1125 (peptide)
peptide: KKPTDR
Take B18: the Binding affinity (RU) is 26 RU.

B19: 6mer-1-1120 (peptide)
peptide: RRKEAK
As for B19, the Binding affinity (RU) is 22 RU.

B20: 6mer-1-1116 (peptide)
peptide: KRHPFR
As to B20, the Binding affinity (RU) was 35 RU.

B21: 6mer-1-1111 (peptide)
peptide: RRASPR
B21 yielded a Binding affinity (RU) of 38 RU.

B22: 6mer-1-1080 (peptide)
peptide: KKHNMR
For B22, the Binding affinity (RU) was 38 RU.

B23: 6mer-1-1086 (peptide)
peptide: RKEANK
For B23, the Binding affinity (RU) is 22 RU.

B24: 6mer-1-1122 (peptide)
peptide: RRTMGR
In the case of B24, the Binding affinity (RU) stood at 33 RU.

B25: 6mer-1-1117 (peptide)
peptide: KKEWFR
With B25, the Binding affinity (RU) was 40 RU.

B26: 6mer-1-1118 (peptide)
peptide: KKDTIK
Take B26: the Binding affinity (RU) stood at 33 RU.

B27: 6mer-1-1113 (peptide)
peptide: RRCTMK
With B27, the Binding affinity (RU) was found to be 28 RU.

B28: 6mer-1-1078 (peptide)
peptide: RRPDIK
B28 had a Binding affinity (RU) of 25 RU.

B29: 6mer-1-1103 (peptide)
peptide: KREDNK
The molecule B29 displayed a Binding affinity (RU) of 27 RU.

B30: 6mer-1-1106 (peptide)
peptide: KRFMNK
For the molecule B30, the Binding affinity (RU) was determined as 39 RU.

B31: 6mer-1-1087 (peptide)
peptide: KKPWKR
With B31, the Binding affinity (RU) came out at 27 RU.

B32: 6mer-1-1083 (peptide)
peptide: KKNAVR
B32: the Binding affinity (RU) is 36 RU.

B33: 6mer-1-1096 (peptide)
peptide: RKPEPR
Consider B33, for which the Binding affinity (RU) turned out to be 23 RU.

B34: 6mer-1-1109 (peptide)
peptide: KRCCVR
Take B34: the Binding affinity (RU) came to 41 RU.

B35: 6mer-1-1100 (peptide)
peptide: KRMSHK
On to B35, for which the Binding affinity (RU) was 43 RU.

B36: 6mer-1-1081 (peptide)
peptide: KRPSNK
B36 returned a Binding affinity (RU) of 23 RU.

B37: 6mer-1-1094 (peptide)
peptide: RRMAIK
Regarding B37, the Binding affinity (RU) worked out at 42 RU.

B38: 6mer-1-1108 (peptide)
peptide: RRAHNK
Regarding B38, the Binding affinity (RU) was 43 RU.

B39: 6mer-1-1107 (peptide)
peptide: KRCPPR
In the case of B39, the Binding affinity (RU) turned out to be 36 RU.

B40: 6mer-1-1079 (peptide)
peptide: RKHPVK
As for B40, the Binding affinity (RU) stood at 25 RU.

B41: 6mer-1-1097 (peptide)
peptide: RKNCNK
With B41, the Binding affinity (RU) is 39 RU.

B42: 6mer-1-1102 (peptide)
peptide: KRFTKK
In turn, B42 returned a Binding affinity (RU) of 35 RU.

B43: 6mer-1-1077 (peptide)
peptide: RRKWGR
In turn, B43 yielded a Binding affinity (RU) of 24 RU.

B44: 6mer-1-1126 (peptide)
peptide: RRHCDK
For the molecule B44, the Binding affinity (RU) came to 41 RU.

B45: 6mer-1-1110 (peptide)
peptide: RKFTER
B45 returned a Binding affinity (RU) of 24 RU.

B46: 6mer-1-1085 (peptide)
peptide: KREAMK
With B46, the Binding affinity (RU) stood at 33 RU.

B47: 6mer-1-1121 (peptide)
peptide: KKTWWR
As for B47, the Binding affinity (RU) was 28 RU.

B48: 6mer-1-1095 (peptide)
peptide: RRCHVK
Consider B48, for which the Binding affinity (RU) was found to be 27 RU.

B49: 6mer-1-1124 (peptide)
peptide: KKDEIR
The molecule B49 came in with a Binding affinity (RU) of 21 RU.

B50: 6mer-1-1114 (peptide)
peptide: KKFNFK
As to B50, the Binding affinity (RU) was 38 RU.

B51: 6mer-1-1098 (peptide)
peptide: RKKDMR
As to B51, the Binding affinity (RU) was determined as 42 RU.
